Source: publication PMC10696041 (2023)
Each block holds one binder with its values, some of them ahead of it.

Key:
[1] = molecular target: T1, procollagen C-proteinase enhancer-2 with N-terminal 6His-tag (human, UniProt Q9UKZ9 24-415); assay: SPR; steady-state fit
T1 chain: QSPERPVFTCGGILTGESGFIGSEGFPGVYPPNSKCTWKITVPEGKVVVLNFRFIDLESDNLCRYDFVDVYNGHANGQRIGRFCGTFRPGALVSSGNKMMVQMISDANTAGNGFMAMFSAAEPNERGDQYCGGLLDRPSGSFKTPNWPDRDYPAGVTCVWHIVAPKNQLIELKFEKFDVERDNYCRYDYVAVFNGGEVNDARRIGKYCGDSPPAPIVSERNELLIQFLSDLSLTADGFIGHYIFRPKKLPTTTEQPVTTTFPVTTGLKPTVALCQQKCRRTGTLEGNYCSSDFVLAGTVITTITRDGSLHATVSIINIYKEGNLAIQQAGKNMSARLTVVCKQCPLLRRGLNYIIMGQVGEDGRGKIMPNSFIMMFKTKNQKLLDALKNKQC

[2] = molecular target: T1, procollagen C-proteinase enhancer-2 …; assay: SPR; heterogeneous ligand model, KD1 (Rmax1 42%)
[3] = molecular target: T1, procollagen C-proteinase enhancer-2 …; assay: SPR; heterogeneous ligand model, kd1
[4] = molecular target: T1, procollagen C-proteinase enhancer-2 …; assay: SPR; heterogeneous ligand model, second site KD2 (Rmax2 58%)
[5] = molecular target: T1, procollagen C-proteinase enhancer-2 …; assay: SPR; heterogeneous ligand model, second site kd2
[6] = molecular target: T2, bone morphogenetic protein-1 (human, UniProt P13497-2 121-730); assay: SPR; steady-state fit
T2 chain: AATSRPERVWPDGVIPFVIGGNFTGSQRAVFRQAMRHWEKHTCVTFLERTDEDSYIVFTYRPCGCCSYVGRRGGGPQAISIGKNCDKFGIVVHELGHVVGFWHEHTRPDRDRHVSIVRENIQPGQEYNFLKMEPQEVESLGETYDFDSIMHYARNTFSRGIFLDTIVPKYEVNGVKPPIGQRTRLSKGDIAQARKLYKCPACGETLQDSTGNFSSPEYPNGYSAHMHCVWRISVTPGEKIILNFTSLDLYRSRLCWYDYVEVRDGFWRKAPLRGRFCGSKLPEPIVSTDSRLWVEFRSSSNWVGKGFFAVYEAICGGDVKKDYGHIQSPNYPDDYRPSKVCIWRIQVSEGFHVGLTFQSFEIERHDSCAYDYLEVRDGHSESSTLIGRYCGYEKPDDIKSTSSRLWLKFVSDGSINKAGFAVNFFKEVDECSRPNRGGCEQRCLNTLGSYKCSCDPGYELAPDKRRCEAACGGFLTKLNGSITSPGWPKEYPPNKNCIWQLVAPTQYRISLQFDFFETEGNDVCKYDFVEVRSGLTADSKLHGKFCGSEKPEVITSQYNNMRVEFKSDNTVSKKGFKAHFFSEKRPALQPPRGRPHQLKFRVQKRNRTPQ

[7] = molecular target: T2, bone morphogenetic protein-1; assay: SPR; heterogeneous ligand model, second site KD2 (Rmax2 86%)
[8] = molecular target: T2, bone morphogenetic protein-1; assay: SPR; heterogeneous ligand model, kd1
[9] = molecular target: T2, bone morphogenetic protein-1; assay: SPR; heterogeneous ligand model, second site kd2
[10] = molecular target: T2, bone morphogenetic protein-1; assay: SPR; heterogeneous ligand model, KD1 (Rmax1 14%)

Kd [1]: 0.024 µM | Kd [2]: 0.00184 µM | koff [3]: 0.0024 s⁻¹ | Kd [4]: 0.066 µM | koff [5]: 0.03 s⁻¹
B1: BMP-1[catCUB1CUB2] (domain or fragment)
chain: AATSRPERVWPDGVIPFVIGGNFTGSQRAVFRQAMRHWEKHTCVTFLERTDEDSYIVFTYRPCGCCSYVGRRGGGPQAISIGKNCDKFGIVVHELGHVVGFWHEHTRPDRDRHVSIVRENIQPGQEYNFLKMEPQEVESLGETYDFDSIMHYARNTFSRGIFLDTIVPKYEVNGVKPPIGQRTRLSKGDIAQARKLYKCPACGETLQDSTGNFSSPEYPNGYSAHMHCVWRISVTPGEKIILNFTSLDLYRSRLCWYDYVEVRDGFWRKAPLRGRFCGSKLPEPIVSTDSRLWVEFRSSSNWVGKGFFAVYEAICGGDVKKDYGHIQSPNYPDDYRPSKVCIWRIQVSEGFHVGLTFQSFEIERHDSCAYDYLEVRDGHSESSTLIGRYCGYEKPDDIKSTSSRLWLKFVSDGSINKAGFAVNFFK

Kd [6]: 0.052 µM | Kd [7]: 0.0266 µM | koff [8]: 0.005 s⁻¹ | koff [9]: 0.198 s⁻¹ | Kd [10]: 0.00629 µM
B2: CUB2NTR region of PCPE-2 (domain or fragment)
chain: CGGLLDRPSGSFKTPNWPDRDYPAGVTCVWHIVAPKNQLIELKFEKFDVERDNYCRYDYVAVFNGGEVNDARRIGKYCGDSPPAPIVSERNELLIQFLSDLSLTADGFIGHYIFRPKKLPTTTEQPVTTTFPVTTGLKPTVALCQQKCRRTGTLEGNYCSSDFVLAGTVITTITRDGSLHATVSIINIYKEGNLAIQQAGKNMSARLTVVCKQCPLLRRGLNYIIMGQVGEDGRGKIMPNSFIMMFKTKNQKLLDALKNKQC
